Results: PMC4946995 (Cell, 2016)
Numbering of substitutions follows the chain as printed.

B1: CPY*-TM2 (other)
chain: ISLQRPLGLDKDVLLQAAEKFGLDLDLDHLLKELDSNVLDAWAQIEHLYPNQVMSLETSTKPKFPEAIKTKKDWDFVVKNDAIENYQLRVNKIKDPKILGIDPNVTQYTGYLDVEDEDKHFFFWTFESRNDPAKDPVILWLNGGPGCSSLTGLFFELGPSSIGPDLKPIGNPYSWNSNATVIFLDQPVNVGFSYSGSSGVSNTVAAGKDVYNFLELFFDQFPEYVNKGQDFHIARESYAGHYIPVFASEILSHKDRNFNLTSVLIGNGLTDPLTQYNYYEPMACGEGGEPSVLPSEECSAMEDSLERCLGLIESCYDSQSVWSCVPATIYCNNAQLAPYQRTGRNVYDIRKDCEGGNLCYPTLQDIDDYLNQDYVKEAVGAEVDHYESCNFDINRNFLFAGDWMKPYHTAVTDLLNQDLPILVYAGDKDFICNWLGNKAWTDVLPWKYDEEFASQKVRNWTASITDEVAGEVKSYKHFTYLRVFNGGHMVPFDVPENALSMVNEWIHGGFSLMLLFFWIPLTLVLLLCFTLSNL
modifications: DyLight800 at the C-terminus, attached with sortase (GGGC-coupled fluorophore)
B2: CPY-TM2 (other)
chain: B1 chain with R235G
modifications: DyLight800 at the C-terminus, attached with sortase (GGGC-coupled fluorophore)
B3: CPY-TM (other)
chain: ISLQRPLGLDKDVLLQAAEKFGLDLDLDHLLKELDSNVLDAWAQIEHLYPNQVMSLETSTKPKFPEAIKTKKDWDFVVKNDAIENYQLRVNKIKDPKILGIDPNVTQYTGYLDVEDEDKHFFFWTFESRNDPAKDPVILWLNGGPGCSSLTGLFFELGPSSIGPDLKPIGNPYSWNSNATVIFLDQPVNVGFSYSGSSGVSNTVAAGKDVYNFLELFFDQFPEYVNKGQDFHIAGESYAGHYIPVFASEILSHKDRNFNLTSVLIGNGLTDPLTQYNYYEPMACGEGGEPSVLPSEECSAMEDSLERCLGLIESCYDSQSVWSCVPATIYCNNAQLAPYQRTGRNVYDIRKDCEGGNLCYPTLQDIDDYLNQDYVKEAVGAEVDHYESCNFDINRNFLFAGDWMKPYHTAVTDLLNQDLPILVYAGDKDFICNWLGNKAWTDVLPWKYDEEFASQKVRNWTASITDEVAGEVKSYKHFTYLRVFNGGHMVPFDVPENALSMVNEWIHGGFSLNYGIFICYIAFNYIAGVFFYWLA
modifications: DyLight800 at the C-terminus, attached with sortase (GGGC-coupled fluorophore)

What was measured:
Hrd1-SBP (S. cerevisiae) = Hrd1-SBP (S. cerevisiae) (UniProt Q08109); test: pull-down
Hrd1-SBP = target: T1, Hrd1-SBP (S. cerevisiae, UniProt Q08109 1-551); test: pull-down
T1 sequence (looked up): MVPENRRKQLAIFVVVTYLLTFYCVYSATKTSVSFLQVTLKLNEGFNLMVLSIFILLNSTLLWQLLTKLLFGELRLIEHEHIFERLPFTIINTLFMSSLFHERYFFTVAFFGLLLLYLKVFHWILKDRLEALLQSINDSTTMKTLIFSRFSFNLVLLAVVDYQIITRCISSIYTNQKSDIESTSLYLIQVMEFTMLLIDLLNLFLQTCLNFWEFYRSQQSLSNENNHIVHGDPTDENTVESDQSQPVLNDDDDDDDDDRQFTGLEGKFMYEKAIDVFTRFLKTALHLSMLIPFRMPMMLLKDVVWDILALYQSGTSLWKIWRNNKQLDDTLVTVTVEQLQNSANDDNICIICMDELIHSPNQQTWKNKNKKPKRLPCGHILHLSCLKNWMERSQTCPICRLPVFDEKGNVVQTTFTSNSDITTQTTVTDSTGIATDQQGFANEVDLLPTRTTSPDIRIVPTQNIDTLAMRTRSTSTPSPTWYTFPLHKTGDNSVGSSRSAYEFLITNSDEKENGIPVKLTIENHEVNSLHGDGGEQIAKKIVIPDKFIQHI

| Molecule | Kd (Hrd1-SBP (S. cerevisiae)) | Kd (Hrd1-SBP) |
| --- | --- | --- |
| misfolded carboxypeptidase Y (CPY*) (from UniProt P00729 21-532) (natural protein) | 20 nM | – |
| B1 | – | ~30 nM |
| B2 | – | ~110 nM |
| B3 | – | ~120 nM |
